Here are results for 23 sequences from the DeepSol protein solubility set.

This data set can be described thus: soluble on expression in E. coli; label from the status in PepcDB or PDB records.
In the case of “MGSDKIHHHHHHMVEMNFKVDAFEGPLDLLLHLIGQLEVDIYDIPMAEITDQYMEFVHTMQEMELDVASEYLVMAATLLAIKSKMLLPKQELEIDYDTLEEEEDPRDALVEKLMEYKRFKEAAKELKEKEAERSFYFSKPPMDLAEYDDGTKVAELDVSLNDMLSAFNKMLRRKKLNKPLHTRITTQEISIDQRMDSVLEKLNLQVNHRLRFDELFEEQTKEQLVVTFLALLELMKRKLVEVEQAESFADLYVQGKGEEIS”, the “soluble on expression in E. coli” value is reported as “not soluble”.
The result for “MGSDKIHHHHHHMLLNVKQDFCLAGPGYLLNHSVGRPLKSTEQALKQAFFAPWQESGREPWGQWLGVIDNFTAALASLFNGQPQDFCPQVNLSSALTKIVMSLDRLTRDLTRNGGAVVLMSEIDFPSMGFALKKALPASCELRFIPKSLDVTDPNVWDAHICDDVDLVFVSHAYSNTGQQAPLAQIISLARERGCLSLVDVAQSAGILPLDLAKLQPDFMIGSSVKWLCSGPGAAYLWVNPAILPECQPQDVGWFSHENPFEFDIHDFRYHPTALRFWGGTPSIAPYAIAAHSIEYFANIGSQVMREHNLQLMEPVVQALDNELVSPQEVDKRSGTIILQFGERQPQILAALAAANISVDTRSLGIRVSPHIYNDEADIARLLGVIKANR” reads “not soluble”.
Consider “MKSYTKHTHTNRLASESSPYLLQHAHNPVEWFPWGEEALQKAKAEDKPILVSIGYSACHWCHVMEHECFEKEEVAAVMNDLFINIKIDREERPDLDQIYMDAVSAMGLRGGWPLNVFLTPDAKPFYGGTYFPQDHWLNLLGQISNAYLNHREDILKSAESFTESLNQSDVF”, for which the “soluble on expression in E. coli” value is listed as “not soluble”.
For “MWLEKFKNKNKETKYRYYEKYKDPLTAKWRRVSVVLNKNGKQSQKEAQRLLNERIEAKLNDKTPTTLKSLTFHVACDEWFQSYIKTSGSKRTTIKTKLSKLNTLKKFVDEDILINKITLSYAQQVFDEMDNKGYVYQVNKDALSIFKNVFEYTRRIYKLQDLEFLKDITLNKRIKSYDEVKAKRNKYLELNEIQSIIKDINTKAQKMHSGIHKRFYLFVALMTEFQALNGMRIGEMLAIQNEDIDFDNKSLNINGTIHWFHDESGGFGVKDTTKTESSYRTIGLSSRSCEILKKAILENKKDSKWNDGYLNRNFVFTNHKGNPMQTERFNKILREAAKDVGIDKEVSSHILRHSHISLLSQQGVSLKAIMDRVGHSDHRTTLSIYSHVTEQMDKDMMNKLEQVKLG”, the “soluble on expression in E. coli” value is “not soluble”.
The value for “MKLSPSMLDKLLRLGYSKLFADRYFQLWGERAIRIAEAMEKPLPRCFRVNTLKISVQDLVKRLNKKGFQFKRVPWAKEGFCLTREPFSITSTPEFLTGLIYIQEASSMYPPVALDPKPGEIVADMAAAPGGKTSYLAQLMRNDGVIYAFDVDENRLRETRLNLSRLGVLNVILFHSSSLHIGELNVEFDKILLDAPCTGSGTIHKNPERKWNRTMDDIKFCQGLQMRLLEKGLEVLKPGGILVYSTCSLEPEENEFVIQWALDNFDVELLPLKYGEPALTNPFGIELSEEIKNARRLYPDVHETSGFFIAKIRKL” was “soluble”.
Take “MSKKVLIITGDAVEALEVYYPYYRLLEEGHDVTIAAPKKKKLHTVVHDFADWDTYVEKQGYLIDAHASFAEVDPAQYDALVIPGGRAPEYIRLDENVQRIVRHFFEANKPIAAICHASLIFETMPDLLKGRSLTAYIACKPGVEALGATYVSDNTVHVDGNLVSAHAWPDLPAFMREFLRLLQ”: the “soluble on expression in E. coli” value is given as “soluble”.
As for “MAHHHHHHMRTFSRTARITSSAACVGRFEHQGVSRDAVLARWSLQVVKPNAMKTGGLIGKGMKFASPLGPSGWATRNSGTGSTVLDVNWDLRERMDYYVHYSVPSTWTVVEHVSDNSVAIQSKPPVCDSPGAEGPTVHGFSLNCFAYKQKVKEPDCEKLLSLFLHRFDASVSNSLAVLSKASGRGNGVICGTAKPEQDISEVLANRLECAVAEITFTPAVGEPLAHGLCRAFYNSNRRFHYVVVVAVPEDEFTLSKDLLTHALLAVVESRVEAAPKGT”, the “soluble on expression in E. coli” value is recorded as “soluble”.
For the sequence “MSLLLEILDLSRSTYYYQVKRLAQGDKDIELKHVIREIYDEHKGNYGYRRIHMELRNRGFVVNHKKVQRLMKVMGLAARIRRKRKYSSYKGEVGKKADNLIKRHFEGSKPYEKCYTDVTEFALPEGKLYLSPVFDSYNCEIIDFTLSRSPNLKQAQTMLEKTFPADSYSGTILHSDQGWQYQHQSYHDFLESKGILPSMSRKGNSPDNGMMDSFFGILKSEMFYGLETTYQSLDKLEEAITDYIFYYNNKRIKAKLKGLSPVQYRTKSFQEGHHHHHH”, the “soluble on expression in E. coli” value is reported as “not soluble”.
On to “MKFLYFGDPHIRGTNPRNRKDNYKEALIAKLREIFALAKYKGVTAIIQPGDTFDRPEVTTSVLLEFAKVLKESPVPIYTTAGNHDIYGYNLATYERTSLRVLELIVPQLTVINDPGQAQMFHQDGNHVQLTFTPYSDQIDKAGYGYSPEIIEDYESTKIHIAHGMLLDHDPPFDRYTKVQDVKTEADLVLCGHDHTGFGIYERSDGKVFVNDGSLTRLSASEAEMRRQISVLLIDVKAPRVFDLERIPLQSAKPGEEVLDRSRIEAEKKRAYAMEEFASLIQTETGEDVLVDINTIVESIAKTQSINSDVVEIALTKIAEAKEGLRT”, for which the “soluble on expression in E. coli” value is reported as “not soluble”.
On to “MEHLGKVFREFRTSGNYSLKEAAGESCSTSQLSRFELGESDLAVSRFFEILDNIHVTIENFMDKARNFHNHEHVSMMAQIIPLYYSNDIAGFQKLQREQLEKSKSSTTPLYFELNWILLQGLICQRDASYDMKQDDLGKVADYLFKTEEWTMYELILFGNLYSFYDVDYVTRIGREVMEREEFYQEISRHKRLVLILALNCYQHCLEHSSFYNANYFEAYTEKIIDKGIKLYERNVFHYLKGFALYQKGQCKEGCKQMQEAMHIFDVLGLPEQVAYYQEHYEKFVKS”, for which the “soluble on expression in E. coli” value is “not soluble”.
As to “KVVLISDVHVGSSQFLEDAWLDFLDFLKGESDSEEMREIASQVRYLVVAGDLVDGIGIYPDQEMELDILDVYEQYRKAADYFKEIPRHIRVIISPGNHDAVRQAEPQPALPERICADFPENVTFVGNPALVDLDGIRILIYHGRSIDDLVASVPGVSYHEPAGAVLEMLKRRHLAPTYGSRVSISPEKKDYFIIDPVPDIIHTGHVHTLGVQRYKNVLLVNSGTWQAQTEFQKRVNLVPVPARVPVVDLADFDVKILAFD”, the “soluble on expression in E. coli” value was “not soluble”.
For the sequence “MSSSGNGRSNNDRADQLRREEQERKDRELAERLQREQSDDTPPAVARRGRNRAAARERASPYSRSRIRSTAGTSDAGPSSSSSVRGRGTRGTTSARRGRGSARGGEATMNRTRANQQISESPNRRRSTRQTRNPNPQMQFEGDRVQVRQGDEIRDITAETYFPDDDDDSDYTQSDNEEEEERNATITISSSESDADSEAESDHEERDMPRAFNPRGSYARSGRGPGGRGRVITPGRYRGSGQHNISADYIRDLLHSRIYPDNPRRDPLYRSGLNNEDESDPENVDADSDDDEAQSNGSSVIDLSDDDDVLIIGGRGAVHADRNHIRQPIFDEDRVMYNHELELYHDEEEYIVPAAKPVSAGGKLVEPDSTWGDCTMCSNPPIKPQGCKKCLQFLGCTDCVRRWYAARKGSMEGSSCPLCRAPWTGRAGVLMMTTIQKNVKKAGITSANTSSDSSLPSTSSLPNN”, the “soluble on expression in E. coli” value was “not soluble”.
For “MMYIDNEVLEKMIMTMVEGFNRLEKKLDRMNRLKDCLDGDTLLDNCDLAQLLGVTQRTIARYREKGLIRYYQTDENGKNFYRSSEIQDFLRHRGKKK”, the “soluble on expression in E. coli” value is “not soluble”.
With “MAHHHHHHMHTNTMEVVVKHMGAAFSVAVIPVLKDNYTYIIHDKTTNTMAAVDVSADTTPIVDYVERIRRSIDERGAGAMSFSTIFSTHKHWDHAGGNVVLPKALKAAGAFRIIGGVNDNISGVTQTVREGDRLSLGALQVEVLEAPCHTRGHVLYKVYHPQAEKDGVALFTGDTMFVGGIGAFFEGDAAHMCRALRKVYNLHHNATDKEEADRRTFVFPGHEYTVNFLQFARDTIPPAHPDATFIASQLERYKESVAQRKPTVPSTLAEEKRQNLFLRTCDESFVREMKHGDTAETLMQHLYDTCP”, the “soluble on expression in E. coli” value is “not soluble”.
Consider “MKEIWYVRHGETEWNAQRRFQGHLDIPLSPVGIGQAFRLAERLSRSRISFDRLYASDLRRARQTAEPLAQVLGLPIATTPLLREIHVGELAGLTRAEAEARFPSFLAEAAEDPWNARRPGGESMADLARRLQAFLEEVPPGRHLVVTHGGVIRAALKLALDLAGDTWRRFHIQNTSITRILYPENAVLTVADAAHLEVWADWLSDEDLKG”, for which the “soluble on expression in E. coli” value is reported as “soluble”.
The result for “MAHHHHHHMPGSELISGGWFREENDQWPGQAMSLRVEKVLYDAPTKFQHLTIFESDPKGPWGTVMALDGCIQVTDYDEFVYHEVLGHTSLCSHPKPERVLIIGGGDGGVLREVLRHGTVEHCDLVDIDGEVMEQSKQHFPQISRSLADPRATVRVGDGLAFVRQTPDNTYDVVIIDTTDPAGPASKLFGEAFYKDVLRILKPDGICCNQGESIWLDLELIEKMSRFIRETGFASVQYALMHVPTYPCGSIGTLVCSKKAGVDVTKPLRPVEDMPFAKDLKYYDSEMHKASFALPRFARHINNSE” reads “soluble”; that for “MFRRLILRQAAAVAAESKIACHHTVHGFEQRRGLHSRNEKAMEYVAKGWSAIKEVERVIDYCELNDRRLIPLLRGAKENFELALEADNLNTHARYWLSKLHLKYHVPGACKAVGAALLVEAADMGNADAQYELGCRLRVENDHVQSDQQAFHYIENAVDQLHPGALYLLGIVYLTGDCVKQDVDSAIWCFHRASEKGHAGAAIAYGSLLLRGVQVPESLTKLNVVGVSPPKRARKNLENPEMNPLEMAKEQFQIAARAGCDLGLKWLQRVEQEEKLLMREQDNECAYV”, “not soluble”; that for “MNIPMYIVDAFTDRPFAGNPAAVCLLPQPVGDEWMQRVAAEMNLSETAFLVPHEGGYRLRWFTPKAEVDLCGHATLASAHVLWERGERRADEAIAFFTNSGVLTAINNDGWIRLDFPNETPVRVESPPAALVGALPAEPLFIGRNRFDYLVEIGSEQEVRRLTPDFRLLQEVDARGIIVTSRSAAEEMDFVSRAFFPALGVPEDPVTGSAHCCLGPYWADKLGKTTLVGYQASARGGIVRVMVSGERVQLEGKAVTVLKGDLAAEAAFGLQPI”, “not soluble”.
For “YFSAICQARKNVYIETPYFIPDESLLKAIKSAALSGVDVRIIFPKIADHKIVNIASYSYFEEILRAGGKVYLYNKGFIHSKVVIIDDKIASAGTANMDLRSFMLNFEVNAFIYDEEVIRVMTDDFFEDLSYCEELNLEVFKNRNIIQKIKESVARLFSPIL”, the “soluble on expression in E. coli” value was “soluble”.
As to “MDRVDCIVIGAGVVGLAVARKLAQAGREVIVLEEAEAIGTITSSRNSEVIHAGIYYRAGSWMARMCVNGKHALYRYCGERGIPHKNCGKLIVATNAKETEKLQSIKAHAEANGVLDMQLLTGEAARALEPALACDAALLSPSTGIIDSHAYMLSLRGEAEEAGAAFAFHTPLIRAKAAAGMIEVEAGGEAPMALQCSLLVNAAGLAATTVARNIDGMPLDRIPPAYLAKGNYFSCNAKAPFSHLIYPVPEPGGLGVHLTLDMAGQARFGPDVEWIETINYEVDPSRAERFYPAIRRYWPTLPDGALMPSYSGIRPKIVPPAVATQDFLMQGPRDHGVAGLINLFGIESPGLTSSLAIADHVAELANILEHHHHHH”, the “soluble on expression in E. coli” value is on record as “not soluble”.
For the sequence “MKNNNLSDARKEKGLTQQELAEKLQVRKSTVSNWETGYSSPGISTAIQTAIILDKDVSFLFGNKVQETHTRVRD”, the “soluble on expression in E. coli” value was “not soluble”.
As for “GPLGSDHVLHVTFPKEWKTSDLYQLFSAFGNIQISWIDDTSAFVSLSQPEQVKIAVNTSKYAESYRIQTYAEYMGRKQEEKQIKRKWTEDSWKEADSKRLN”, the “soluble on expression in E. coli” value is “soluble”.
The value for “MLDDCEASGFINDKRYAELLVRSNIARGHGPIRIRQAIAQKGLTKDCIEAALIATDYDWFELAKAKAKAKAIKKYGVPKVTEVKGSQSRELIAKEKAKRVRFLLSQGFSYEQVIYALDYDPLEDNDD” was “not soluble”.
